For one assay, the target named is T1, LRP6 E3E4 (Homo sapiens, UniProt O75581).
T1 construct: construct E3E4 amino acids E631-Q1253 of LPR6; made in house; host or cells: Tni insect cells (baculovirus, secreted)
T1 sequence (O75581 631-1253): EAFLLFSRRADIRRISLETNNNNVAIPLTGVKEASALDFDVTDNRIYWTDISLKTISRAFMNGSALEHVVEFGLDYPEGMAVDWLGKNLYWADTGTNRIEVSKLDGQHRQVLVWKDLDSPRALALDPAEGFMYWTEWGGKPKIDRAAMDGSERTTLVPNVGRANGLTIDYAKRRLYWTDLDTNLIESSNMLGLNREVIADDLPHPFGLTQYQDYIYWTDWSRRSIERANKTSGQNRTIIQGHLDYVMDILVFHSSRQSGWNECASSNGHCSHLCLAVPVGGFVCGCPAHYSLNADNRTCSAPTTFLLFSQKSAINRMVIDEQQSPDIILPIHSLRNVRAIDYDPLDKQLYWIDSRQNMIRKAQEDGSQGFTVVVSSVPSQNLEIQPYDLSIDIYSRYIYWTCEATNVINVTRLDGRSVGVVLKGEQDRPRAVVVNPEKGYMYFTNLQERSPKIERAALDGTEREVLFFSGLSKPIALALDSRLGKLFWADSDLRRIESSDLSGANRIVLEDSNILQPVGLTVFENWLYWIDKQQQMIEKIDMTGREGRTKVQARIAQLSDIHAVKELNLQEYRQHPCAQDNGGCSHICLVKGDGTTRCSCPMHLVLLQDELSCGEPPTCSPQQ
The assay can be described thus: Biolayer interferometry binding to LRP6 E3E4. How it is done:
(§1) Binding kinetics were measured by biolayer interferometry using an Octet Red instrument (ForteBio) as previously described (11). Streptavidin (SA) biosensors were loaded with biotinylated hLRP6 in 50 mMTris, pH 8, 300 mM NaCl, 5% (v/v) glycerol, and 0.05% (w/v) Triton X-100. The loaded biosensors were washed in the same buffer before carrying out association and dissociation measurements for the indicated times. The Kd of each interaction was determined using steady state-analysis through the Octet Red software v6.3. Each reported value represents an average of three or more experiments at different concentrations, with a fitted experimental curve for which the square of the correlation coefficient (R^2) is above 0.96.
(§2) The interaction of the different Dkks and sclerostin with various domains of LRP6 was measured using a biolayer interferometry assay (11). Purified receptors contained individual β-propeller-EGF-like units (E1, E2, or E4), two β-propellers (E1E2 or E3E4), or four β-propellers (E1E4))—as follows:
(§3) Human LRP6: construct E1E4-amino acids A20-Q1253 of LPR6; construct E1E2-amino acids A20-E631 of LPR6; construct E3E4 amino acids E631-Q1253 of LPR6; construct E1-amino acids A20-D325 of LPR6; construct E2-amino acids […]-E631 of LPR6; construct E4-T933-Q1253. The individual LRP6 β-propeller E3 could not be expressed.

A further assay addresses T2, LRP6 E1E2 (Homo sapiens, UniProt O75581).
T2 construct: construct E1E2-amino acids A20-E631 of LPR6; made in house; host or cells: Tni insect cells (baculovirus, secreted)
T2 sequence (O75581 20-631): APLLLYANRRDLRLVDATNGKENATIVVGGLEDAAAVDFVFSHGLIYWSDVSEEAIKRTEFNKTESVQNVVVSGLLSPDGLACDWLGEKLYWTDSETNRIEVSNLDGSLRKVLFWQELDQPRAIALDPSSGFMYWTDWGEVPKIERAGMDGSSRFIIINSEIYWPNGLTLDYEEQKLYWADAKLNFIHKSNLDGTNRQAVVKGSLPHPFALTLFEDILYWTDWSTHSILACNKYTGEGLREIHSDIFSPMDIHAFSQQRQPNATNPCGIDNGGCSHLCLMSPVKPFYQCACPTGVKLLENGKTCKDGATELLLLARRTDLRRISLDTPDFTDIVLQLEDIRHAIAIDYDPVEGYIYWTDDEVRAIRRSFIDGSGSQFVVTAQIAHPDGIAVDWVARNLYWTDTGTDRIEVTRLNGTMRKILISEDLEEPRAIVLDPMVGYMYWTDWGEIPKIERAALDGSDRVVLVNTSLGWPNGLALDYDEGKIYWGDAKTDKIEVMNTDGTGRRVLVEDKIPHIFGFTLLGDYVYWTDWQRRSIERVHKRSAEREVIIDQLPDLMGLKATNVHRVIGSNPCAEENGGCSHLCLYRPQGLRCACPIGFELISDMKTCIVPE
The assay is described as follows: Biolayer interferometry binding to LRP6 E1E2. How it is done: as §1, §2, §3
On the technique in general: Biolayer interferometry detects binding as a change in optical thickness at a sensor tip.

A further assay concerns the target T3, LRP6 E1E4 (Homo sapiens, UniProt O75581).
T3 construct: construct E1E4-amino acids A20-Q1253 of LPR6; made in house; host or cells: Tni insect cells (baculovirus, secreted)
T3 sequence (O75581 20-1253): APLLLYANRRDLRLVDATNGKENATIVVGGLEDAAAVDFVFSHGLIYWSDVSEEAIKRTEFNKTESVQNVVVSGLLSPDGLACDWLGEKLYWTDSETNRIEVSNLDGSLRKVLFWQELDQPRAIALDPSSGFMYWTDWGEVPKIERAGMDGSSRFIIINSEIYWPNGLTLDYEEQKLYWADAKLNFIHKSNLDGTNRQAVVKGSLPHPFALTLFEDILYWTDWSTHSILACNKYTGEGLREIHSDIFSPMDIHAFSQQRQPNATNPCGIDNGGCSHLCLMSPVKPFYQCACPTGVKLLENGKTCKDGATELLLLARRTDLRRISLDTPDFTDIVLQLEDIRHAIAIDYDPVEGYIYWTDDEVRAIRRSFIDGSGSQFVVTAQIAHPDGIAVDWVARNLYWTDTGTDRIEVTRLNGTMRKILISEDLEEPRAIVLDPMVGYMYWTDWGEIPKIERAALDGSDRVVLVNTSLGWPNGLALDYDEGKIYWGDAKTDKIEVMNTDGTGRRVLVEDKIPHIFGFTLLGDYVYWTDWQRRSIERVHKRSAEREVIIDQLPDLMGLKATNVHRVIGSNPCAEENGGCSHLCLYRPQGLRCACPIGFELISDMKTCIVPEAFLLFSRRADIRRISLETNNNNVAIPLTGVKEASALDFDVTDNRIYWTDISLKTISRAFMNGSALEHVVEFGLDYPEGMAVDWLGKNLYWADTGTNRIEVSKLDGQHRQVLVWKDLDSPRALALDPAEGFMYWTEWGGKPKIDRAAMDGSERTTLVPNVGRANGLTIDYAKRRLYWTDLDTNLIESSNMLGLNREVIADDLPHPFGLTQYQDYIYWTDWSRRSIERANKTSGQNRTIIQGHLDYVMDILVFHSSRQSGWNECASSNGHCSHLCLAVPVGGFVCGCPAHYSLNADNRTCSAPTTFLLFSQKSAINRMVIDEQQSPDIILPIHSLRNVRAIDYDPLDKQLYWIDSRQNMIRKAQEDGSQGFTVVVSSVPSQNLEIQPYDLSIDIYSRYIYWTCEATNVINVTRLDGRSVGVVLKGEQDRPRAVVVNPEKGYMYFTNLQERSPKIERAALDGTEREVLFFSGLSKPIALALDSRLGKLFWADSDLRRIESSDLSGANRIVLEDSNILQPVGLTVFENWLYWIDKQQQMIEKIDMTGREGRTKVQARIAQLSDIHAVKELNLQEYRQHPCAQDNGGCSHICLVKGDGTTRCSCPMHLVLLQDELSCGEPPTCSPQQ
The assay is described as follows: Biolayer interferometry binding to LRP6 E1E4. As for the experimental part: as §1, §2, §3

Assay [1] addresses T4, human LRP6 construct E1E2 (amino acids A20-E631) (human, UniProt O75581 20-631, biotinylated for biolayer interferometry).
T4 construct: range 20-631; also called LRP6 E1E2
T4 sequence (looked up): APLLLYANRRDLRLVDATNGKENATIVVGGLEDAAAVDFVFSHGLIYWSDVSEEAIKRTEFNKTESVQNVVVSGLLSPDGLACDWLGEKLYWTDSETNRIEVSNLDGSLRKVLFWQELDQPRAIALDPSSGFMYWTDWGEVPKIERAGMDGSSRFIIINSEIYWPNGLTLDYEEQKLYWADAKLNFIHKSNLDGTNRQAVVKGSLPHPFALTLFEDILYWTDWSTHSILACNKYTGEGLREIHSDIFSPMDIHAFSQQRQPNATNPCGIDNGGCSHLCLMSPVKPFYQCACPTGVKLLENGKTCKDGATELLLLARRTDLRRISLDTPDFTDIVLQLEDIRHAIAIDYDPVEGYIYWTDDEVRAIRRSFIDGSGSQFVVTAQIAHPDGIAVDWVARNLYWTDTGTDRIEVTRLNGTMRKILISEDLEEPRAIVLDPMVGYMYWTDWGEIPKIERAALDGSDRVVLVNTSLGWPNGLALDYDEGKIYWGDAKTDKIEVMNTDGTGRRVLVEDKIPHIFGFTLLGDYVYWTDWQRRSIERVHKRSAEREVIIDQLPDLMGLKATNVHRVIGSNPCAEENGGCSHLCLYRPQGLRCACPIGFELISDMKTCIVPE
The assay can be described thus: BLI affinity. As for the experimental part: as §1, with “(R²)” for “(R^2)”

Another assay relates to Wnt1-dependent signaling. The assay can be described thus: Wnt-dependent TOPbrite luciferase reporter assay, cells transfected with Wnt1. The note with it: cells stably transfected with reporter, transiently with Wnt1. In kind it is cell-based. How it is done:
FIG. 12. Induction of a Wnt/β-catenin reporter in the presence or absence of wild-type and mutant inhibitors. Cells were transfected by Wnt1 (binds to LRP6 E1E2). Dkk1 and sclerostin variants, or the control inhibitor Fz8 CRD, were used at the indicated doses.
Wnt signaling was assessed either in mouse fibroblast L-cells or in HEK293s cells. The luciferase reporter assay in 293 cells was performed as described (52). The mouse fibroblast L-cell imaging assay was conducted essentially as described(53). Cells were treated with Wnt3a, Fz8 CRD ((US Patent Publication 20080299136; (54), LRP6, or Dkk1, or combinations of these proteins, as indicated and processed after an additional 6 h at 37° C./5% CO2.
To test whether the observed effects on binding between purified proteins were relevant to cellular signaling, Dkk1 and sclerostin activities were tested further in a Wnt-dependent TOPbrite luciferase reporter assay (52). Cells stably transfected with reporter were transfected transiently with Wnt1. The Wnt-transfected cells were treated with purified Dkk1 or sclerostin variants, and the effect on reporter induction was measured (FIG. 12). […] This is consistent with earlier observations that Wnt1 belongs to a class of Wnts signaling through the E1E2 portion of to LRP5/6 (11, 52). The Dkk1 and sclerostin mutants show activities consistent with their binding to LRP6 (FIG. 12). Sclerostin Ile119Glu (“NXI” motif) is impaired relative to wild-type in its ability to inhibit Wnt1-driven signaling, as is Dkk1 Ile42Glu.
In general terms: A reporter such as luciferase makes a cellular process visible.

B1: Dkk1 Asn40Ala (ligand, human, UniProt O94907 32-266, looked up)
chain: TLNSVLNSAAIKNLPPPLGGAAGHPGSAVSAAPGILYPGGNKYQTIDNYQPYPCAEDEECGTDEYCASPTRGGDAGVQICLACRKRRKRCMRHAMCCPGNYCKNGICVSSDQNHFRGEIEETITESFGNDHSTLDGYSRRTTLSSKMYHTKGQEGSVCLRSSDCASGLCCARHFWSKICKPVLKEGQVCTKHRRKGSHGLEIFQRCYCGEGLSCRIQKDHHQASNSSRLHTCQRH
notes: also called Dkk1 N40A
Turning to B1, the “binding to LRP6 E3E4 (in words)” value with LRP6 E3E4 is “not to E3E4”. The “binding to LRP6 E1E2 (in words)” value in the assay with LRP6 E1E2 is “affect binding”. The “binding to LRP6 E1E4 (in words)” value with LRP6 E1E4 is reported as “retain binding”. Also, in assay [1], the “fold loss in affinity against wild-type Dkk1” value came out at 75 fold.

B2: Dkk4: Dickkopf 4, carrier-free protein from R&D Systems (protein, UniProt Q9UBT3 19-224, looked up)
Dickkopf-related protein 4: LVLDFNNIRSSADLHGARKGSQCLSDTDCNTRKFCLQPRDEKPFCATCRGLRRRCQRDAMCCPGTLCVNDVCTTMEDATPILERQLDEQDGTHAEGTTGHPVQENQPKRKPSIKKSQGRKGQEGESCLRTFDCGPGLCCARHFWTKICKPVLLEGQVCSRRGHKDTAQAPEIFQRCDCGPGLLCRSQLTSNRQHARLRVCQKIEKL
With B2, in the assay with LRP6 E3E4, the “binding to LRP6 E3E4 (in words)” value is on record as “very weak binding”. Also, the “binding to LRP6 E1E2 (in words)” value in the assay with LRP6 E1E2 was “did not bind”. The “binding to LRP6 E1E4 (in words)” value in the assay with LRP6 E1E4 was “very weak binding”.

B3: Sclerostin Asn117Ala (ligand, UniProt Q9BQB4 24-213, looked up)
chain: QGWQAFKNDATEIIPELGEYPEPPPELENNKTMNRAENGGRPPHHPFETKDVSEYSCRELHFTRYVTDGPCRSAKPVTELVCSGQCGPARLLPAAIGRGKWWRPSGPDFRCIPDRYRAQRVQLLCPGGEAPRARKVRLVASCKCKRLTRFHNQSELKDFGTEAARPQKGRKPRPRARSAKANQAELENAY
notes: also called sclerostin N117A
Consider B3, for which, in assay [1], the “fold loss in affinity against wild-type sclerostin” value was 14 fold.

B4: Sclerostin Ile119Glu (ligand, UniProt Q9BQB4 24-213, looked up)
chain: QGWQAFKNDATEIIPELGEYPEPPPELENNKTMNRAENGGRPPHHPFETKDVSEYSCRELHFTRYVTDGPCRSAKPVTELVCSGQCGPARLLPNAEGRGKWWRPSGPDFRCIPDRYRAQRVQLLCPGGEAPRARKVRLVASCKCKRLTRFHNQSELKDFGTEAARPQKGRKPRPRARSAKANQAELENAY
notes: also called sclerostin I119E
As for B4, the “inhibition of Wnt1-dependent signaling (reporter induction)” value in the assay on Wnt1-dependent signaling is recorded as “impaired”. Besides, in assay [1], the “fold loss in affinity against wild-type sclerostin” value amounted to 19 fold.

Source of the values: US20140235820A1, “METHODS AND COMPOSITIONS FOR MODULATING THE Wnt PATHWAY” (Genentech, Inc., priority 2010, published 2014).
